Test results taken from paper PMC4092090, “Investigation of a MMP-2 Activity-Dependent Anchoring Probe for Nuclear Imaging of Cancer” (PLoS ONE, 2014).
Read-outs that look alike come from different tables or passages of the source.

How the values were obtained:
[1] = molecular target: T1, Human-recombinant MMP-2 protein (Homo sapiens, UniProt P08253); experiment: Cleavage assay; type: biochemical; settings: activated MMP-2 1–5 nM, 370 kBq probe, 37°C, 2 hr, pH 7.5 assay buffer, RP-HPLC, Fig. 3b
T1 construct: purchased R & D Systems, Inc. 902-MP-010
T1 sequence (P08253 110-660): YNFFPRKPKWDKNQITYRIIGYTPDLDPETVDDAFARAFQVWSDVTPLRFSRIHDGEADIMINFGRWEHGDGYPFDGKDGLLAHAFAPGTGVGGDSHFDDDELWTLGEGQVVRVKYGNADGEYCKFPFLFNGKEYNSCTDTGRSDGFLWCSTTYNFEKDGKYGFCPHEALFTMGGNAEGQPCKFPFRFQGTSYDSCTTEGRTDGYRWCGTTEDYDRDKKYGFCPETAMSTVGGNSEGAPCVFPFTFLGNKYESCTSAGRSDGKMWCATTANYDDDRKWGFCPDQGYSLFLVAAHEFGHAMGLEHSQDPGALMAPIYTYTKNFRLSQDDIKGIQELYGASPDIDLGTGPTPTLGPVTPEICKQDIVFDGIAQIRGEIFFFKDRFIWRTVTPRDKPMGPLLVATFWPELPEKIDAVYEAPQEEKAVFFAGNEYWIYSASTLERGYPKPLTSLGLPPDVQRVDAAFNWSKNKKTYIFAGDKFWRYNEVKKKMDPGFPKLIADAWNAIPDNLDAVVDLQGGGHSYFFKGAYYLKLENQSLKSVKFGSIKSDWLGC
Experimental: Human-recombinant MMP-2 protein (902-MP-010, R & D Systems, Inc., Minneapolis, MN USA) was activated with p-aminophenylmercuric acetate (1 mM) in assay buffer (50 mM Tris-HCl, 150 mM NaCl, 10 mM CaCl2, 5 µM ZnCl2, 0.02% Brij 35, pH 7.5). MDAP1000, MDAP3000, and MDAP5000 (370 kBq) were incubated at 37°C for 2 hr with activated MMP-2 (1–5 nM) and a MMP inhibitor (0 or 100 µM, GM6001, Merck KGaA, Darmstadt, Germany). The reaction was quenched by addition of methanol, and the percentage of cleaved peptide was estimated by RP-HPLC.

[2] = system: HT1080 tumor bearing mice; parameters: species or system mouse (Balb/c nu-nu); settings: mouse, in vivo, iv; for Radioactivity biodistribution, Blood / Radioactivity biodistribution, Heart / Radioactivity biodistribution, Intestine / Radioactivity biodistribution, Kidneys / Radioactivity biodistribution, Liver / Radioactivity biodistribution, Lung / Radioactivity biodistribution, Muscle / Radioactivity biodistribution, Pancreas / Radioactivity biodistribution, Spleen / Radioactivity biodistribution, Stomach / Radioactivity biodistribution, Tumor / T/B (tumor to blood ratio): 37 kBq
Experimental: Female Balb/c nu-nu mice (5 weeks old, Japan SLC, Inc., Shizuoka, Japan) were housed under a 12-h light/12-h dark cycle and given free access to food and water. HT1080 cells (5×10^6 cells/100 μl PBS (-)/mouse) were subcutaneously inoculated into the right hind leg of Balb/c nu-nu mice. Animals were used for experiments two weeks after inoculation when the mean tumor size was 5.7±2.2 mm along the major axis. […]3000 and […] (37 kBq, 100 μl in PBS including 3% bovine serum albumin and 0.1% Tween 80) were injected intravenously into the tail vein of tumor bearing mice. The mice were sacrificed at various post-injection time points (n = 3 for each time point), and the organs of interest including the tumor tissues were collected for determination of the weights. The radioactivity of each sample was measured with a NaI well-type scintillation counter. From fitting to the two phase decay curves for blood radioactivity data analyzed by GraphPad Prism 6 (GraphPad Software, San Diego, CA), whole body pharmacokinetic parameters such as blood half-lives, distribution volume, mean residence time and total clearance were calculated for each of the probes and the values compared. Simple pharmacokinetic analysis using a single tissue compartment model was applied to the biodistribution data to calculate rate constants (K1 and k2) for radioactivity transfer from blood to tumor and clearance from tumor to blood by PMOD version 3.2. In addition, MDAP3000 (7.4 MBq in 200 μl) was injected intravenously into the tail vein of tumor bearing mice for metabolite analysis in tumors excised 3, 6, and 24 hr post injection (n = 2 each). Tumor homogenates were prepared on ice and insoluble material was removed by centrifugation after methanol treatment. The resulting supernatant was analyzed by RP-HPLC.

Palmitoyl-Dap(p-SCN-Bn-DTPA-^111In)-10-Adc-Gly-Pro-Leu-Gly-Val-Arg-Gly-Lys(ivDde)-PEG1000 [MDAP1000]
Cleavage by MMP-2 [1]: concentration-dependent manner
Blood clearance (in words) [2]: rapid blood clearance
Tumor accumulation (in words) [2]: low tumor accumulation
Radioactivity biodistribution, Blood ([2]; 0.25 h): 46.93±5.71 % injected dose per gram
Radioactivity biodistribution, Heart ([2]; 0.25 h): 9.40±2.03 % injected dose per gram
Radioactivity biodistribution, Intestine ([2]; 0.25 h): 4.18±0.58 % injected dose per gram
Radioactivity biodistribution, Kidneys ([2]; 0.25 h): 14.24±1.90 % injected dose per gram
Radioactivity biodistribution, Liver ([2]; 0.25 h): 34.27±5.87 % injected dose per gram
Radioactivity biodistribution, Lung ([2]; 0.25 h): 21.23±2.65 % injected dose per gram
Radioactivity biodistribution, Muscle ([2]; 0.25 h): 2.15±0.57 % injected dose per gram
Radioactivity biodistribution, Pancreas ([2]; 0.25 h): 4.28±0.41 % injected dose per gram
Radioactivity biodistribution, Spleen ([2]; 0.25 h): 8.06±0.23 % injected dose per gram
Radioactivity biodistribution, Stomach ([2]; 0.25 h): 1.03±0.15 % injected dose per organ
Radioactivity biodistribution, Tumor ([2]; 0.25 h): 1.70±0.85 % injected dose per gram
T/B (tumor to blood ratio) ([2]; 0.25 h): 0.04±0.01
Radioactivity biodistribution, Blood ([2]; 1 h): 24.81±3.60 % injected dose per gram
Radioactivity biodistribution, Heart ([2]; 1 h): 8.43±1.19 % injected dose per gram
Radioactivity biodistribution, Intestine ([2]; 1 h): 8.97±0.28 % injected dose per gram
Radioactivity biodistribution, Kidneys ([2]; 1 h): 11.66±1.17 % injected dose per gram
Radioactivity biodistribution, Liver ([2]; 1 h): 42.27±8.44 % injected dose per gram
Radioactivity biodistribution, Lung ([2]; 1 h): 12.56±1.70 % injected dose per gram
Radioactivity biodistribution, Muscle ([2]; 1 h): 1.94±0.33 % injected dose per gram
Radioactivity biodistribution, Pancreas ([2]; 1 h): 5.52±1.05 % injected dose per gram
Radioactivity biodistribution, Spleen ([2]; 1 h): 7.72±1.86 % injected dose per gram
Radioactivity biodistribution, Stomach ([2]; 1 h): 1.13±0.21 % injected dose per organ
Radioactivity biodistribution, Tumor ([2]; 1 h): 1.90±0.38 % injected dose per gram
T/B (tumor to blood ratio) ([2]; 1 h): 0.08±0.02
Radioactivity biodistribution, Blood ([2]; 3 h): 10.58±1.28 % injected dose per gram
Radioactivity biodistribution, Heart ([2]; 3 h): 7.47±0.45 % injected dose per gram
Radioactivity biodistribution, Intestine ([2]; 3 h): 20.39±4.51 % injected dose per gram
Radioactivity biodistribution, Kidneys ([2]; 3 h): 10.56±1.49 % injected dose per gram
Radioactivity biodistribution, Liver ([2]; 3 h): 50.70±7.52 % injected dose per gram
Radioactivity biodistribution, Lung ([2]; 3 h): 6.17±0.88 % injected dose per gram
Radioactivity biodistribution, Muscle ([2]; 3 h): 2.00±0.38 % injected dose per gram
Radioactivity biodistribution, Pancreas ([2]; 3 h): 4.50±1.45 % injected dose per gram
Radioactivity biodistribution, Spleen ([2]; 3 h): 10.01±3.77 % injected dose per gram
Radioactivity biodistribution, Stomach ([2]; 3 h): 1.14±0.33 % injected dose per organ
Radioactivity biodistribution, Tumor ([2]; 3 h): 2.65±0.33 % injected dose per gram
T/B (tumor to blood ratio) ([2]; 3 h): 0.25±0.05
Radioactivity biodistribution, Blood ([2]; 6 h): 5.85±0.74 % injected dose per gram
Radioactivity biodistribution, Heart ([2]; 6 h): 5.71±0.61 % injected dose per gram
Radioactivity biodistribution, Intestine ([2]; 6 h): 13.23±3.92 % injected dose per gram
Radioactivity biodistribution, Kidneys ([2]; 6 h): 9.53±1.08 % injected dose per gram
Radioactivity biodistribution, Liver ([2]; 6 h): 30.08±5.98 % injected dose per gram
Radioactivity biodistribution, Lung ([2]; 6 h): 4.38±0.32 % injected dose per gram
Radioactivity biodistribution, Muscle ([2]; 6 h): 1.68±0.46 % injected dose per gram
Radioactivity biodistribution, Pancreas ([2]; 6 h): 5.53±1.77 % injected dose per gram
Radioactivity biodistribution, Spleen ([2]; 6 h): 10.00±2.61 % injected dose per gram
Radioactivity biodistribution, Stomach ([2]; 6 h): 0.73±0.06 % injected dose per organ
Radioactivity biodistribution, Tumor ([2]; 6 h): 3.18±0.69 % injected dose per gram
T/B (tumor to blood ratio) ([2]; 6 h): 0.55±0.15
Radioactivity biodistribution, Blood ([2]; 24 h): 5.26±0.94 % injected dose per gram
Radioactivity biodistribution, Heart ([2]; 24 h): 4.11±0.44 % injected dose per gram
Radioactivity biodistribution, Intestine ([2]; 24 h): 4.90±0.90 % injected dose per gram
Radioactivity biodistribution, Kidneys ([2]; 24 h): 7.01±0.45 % injected dose per gram
Radioactivity biodistribution, Liver ([2]; 24 h): 8.89±1.11 % injected dose per gram
Radioactivity biodistribution, Lung ([2]; 24 h): 2.63±0.28 % injected dose per gram
Radioactivity biodistribution, Muscle ([2]; 24 h): 1.55±0.13 % injected dose per gram
Radioactivity biodistribution, Pancreas ([2]; 24 h): 6.21±3.76 % injected dose per gram
Radioactivity biodistribution, Spleen ([2]; 24 h): 4.82±1.10 % injected dose per gram
Radioactivity biodistribution, Stomach ([2]; 24 h): 0.49±0.09 % injected dose per organ
Radioactivity biodistribution, Tumor ([2]; 24 h): 3.33±0.44 % injected dose per gram
T/B (tumor to blood ratio) ([2]; 24 h): 0.65±0.15
